The RNAGym collection of RNA variant scans (doi:10.7554/elife.90254)

B1: LINE1-full (parent)
chain: UACGUAGGUGGUUUUCCCCUGAUAGUGCUAAGGGGGCCUGGAAGUUUGGACUGGGCAGAGCUCAACACAGCGUGGCAAAGUGGCUGUGGCUAGACUGCCUCUCUGGAUUCCUCGUCACUCAGCAGGGCAUCUCUGAGAGAAAUGCC

Variants of: B1
Test: self-cleavage, relative activity (ratio to wild type); higher = more cleavage; in vitro, sequencing; the parent is a self-cleaving ribozyme

Compared with U29C U134A, U29C U134C is higher in self-cleavage: 0.89 for the first, 1.37 for the second.

Compared with A31U C146U, A31U C146A is lower in self-cleavage: 0.94 for the first, 0.88 for the second.

Going from U29C U119A to U29C U119C, the self-cleavage rises from 1.21 to 1.45.

First: A30G A64U
Second: A30G A64C
The self-cleavage of the first is higher: 0.65 for the first, 0.31 for the second.

Compared with A30G U96A, A30G U96C is higher in self-cleavage: 0.21 for the first, 0.45 for the second.

A31U U73A and A30C U112C are the same in self-cleavage: 1.33 for the first, 1.33 for the second.

Going from A30G G88C to U29C U132A, the self-cleavage rises from 0.44 to 1.47.

First: U29C U132C
Second: A31G U109C
The self-cleavage of the first is higher: 1.46 for the first, 0.79 for the second.

First: A30C A57G
Second: A30C A121G
The self-cleavage of the first is lower: 0.52 for the first, 2.42 for the second.

A31G A79G and A30G A136G are the same in self-cleavage: 1.23 for the first, 1.23 for the second.

First: A31G A78G
Second: A31G C123U
The self-cleavage of the first is lower: 0.96 for the first, 1.02 for the second.

Going from A31U U109A to A31U U109C, the self-cleavage falls from 1.69 to 1.17.

Going from A31G A129U to A30G A117G, the self-cleavage rises from 0.84 to 0.91.

Going from A30G U112A to A30G U112C, the self-cleavage falls from 1.1 to 0.96.

Compared with A30G U45A, A30G A59G is lower in self-cleavage: 1.53 for the first, 0.11 for the second.

First: A30U A69U
Second: A30C G41U
The self-cleavage of the first is lower: 0.1 for the first, 1.52 for the second.

First: A31G U130G
Second: A30G A124G
The self-cleavage of the first is higher: 1.84 for the first, 0.91 for the second.

Going from A30G A42G to A30G A42C, the self-cleavage falls from 0.9 to 0.59.

Going from A30U A136G to A31G C113U, the self-cleavage falls from 1.4 to 1.03.

Compared with A30G C145G, A31G G135A is higher in self-cleavage: 0.47 for the first, 1.09 for the second.

Going from U29C G55C to A31G C145G, the self-cleavage rises from 0 to 1.63.

Compared with U29C G53A, A31U A43G is lower in self-cleavage: 0.94 for the first, 0.9 for the second.

First: A31G G114A
Second: A31G U96A
The self-cleavage of the first is higher: 1.09 for the first, 0.11 for the second.

First: A31G U96C
Second: A30U U130C
The self-cleavage of the first is lower: 0.16 for the first, 1.05 for the second.

First: A31U A136U
Second: U29C U47C
The self-cleavage of the first is lower: 0.55 for the first, 1.85 for the second.

Going from U29C U47A to G32A C101U, the self-cleavage falls from 1.11 to 0.95.

Compared with U29C G114C, U29C G114A is lower in self-cleavage: 1.49 for the first, 1.38 for the second.

First: U29C U109C
Second: G32A G34A
The self-cleavage of the first is higher: 0.91 for the first, 0.73 for the second.

Going from A30U U100A to A31G U143C, the self-cleavage rises from 0.9 to 1.04.

Going from A31U U46G to A30G C38U, the self-cleavage falls from 1.67 to 1.2.

First: A30U U134C
Second: G32A C128A
The self-cleavage of the first is higher: 1.22 for the first, 0.61 for the second.

Compared with U29G U134A, A30U U46C is lower in self-cleavage: 1.41 for the first, 1.12 for the second.

First: A30U U46G
Second: A31G G35C
The self-cleavage of the first is lower: 1.14 for the first, 1.15 for the second.

Compared with A31G A121G, A30U U132C is lower in self-cleavage: 1.24 for the first, 1.07 for the second.

Compared with A30U U132A, A30U A42G is lower in self-cleavage: 1.22 for the first, 0.99 for the second.

Compared with A30C G35A, A30U A43U is lower in self-cleavage: 1.51 for the first, 0.58 for the second.

Going from A30U A43C to A30G A79G, the self-cleavage falls from 1.57 to 1.19.

Going from A30G A79U to U29G A124G, the self-cleavage falls from 0.5 to 0.44.

Compared with A30U U112C, A30G C110U is higher in self-cleavage: 1.08 for the first, 1.25 for the second.

First: U29G U112C
Second: G32A A129U
The self-cleavage of the first is higher: 1.36 for the first, 1.15 for the second.

First: G32A A129G
Second: G32A G82A
The self-cleavage of the first is lower: 0.93 for the first, 2.01 for the second.

Going from A30G U143C to A30G U143A, the self-cleavage falls from 1.06 to 0.93.

Going from A31U G126U to A31U A50G, the self-cleavage falls from 0.79 to 0.16.

First: U29C U108C
Second: A30G C63U
The self-cleavage of the first is higher: 1.27 for the first, 0.51 for the second.

Going from A30G C63A to A30U U108C, the self-cleavage rises from 0.3 to 0.41.

Going from U29C U143A to A30U G35A, the self-cleavage falls from 1.17 to 1.07.

First: A30U C90G
Second: U29C U45C
The self-cleavage of the first is lower: 0.09 for the first, 1.08 for the second.

First: U29C U45G
Second: A30G A129G
The self-cleavage of the first is higher: 0.79 for the first, 0.72 for the second.

Compared with A30G A129C, A31C A78G is higher in self-cleavage: 0 for the first, 1.1 for the second.

Going from A30G U85A to A30G U85G, the self-cleavage falls from 0.32 to 0.17.

Compared with G32A C68U, A31G G125U is higher in self-cleavage: 0 for the first, 0.96 for the second.

First: A31C U100C
Second: A31G U39G
The self-cleavage of the first is lower: 0.92 for the first, 1.37 for the second.

Going from A31G U39A to A30G G105C, the self-cleavage falls from 0.49 to 0.25.

First: G32A A69G
Second: G32A A69U
The self-cleavage of the first is higher: 0.37 for the first, 0.02 for the second.

First: U29C U112C
Second: U29C U52A
The self-cleavage of the first is lower: 1.07 for the first, 1.16 for the second.

First: U29C U52C
Second: A30G G74A
The self-cleavage of the first is higher: 1.84 for the first, 0.56 for the second.

First: A30G U119C
Second: A30G U119A
The self-cleavage of the first is higher: 1.45 for the first, 1.01 for the second.

First: A31U U87A
Second: A30U C101U
The self-cleavage of the first is lower: 0.14 for the first, 1.35 for the second.

Compared with A31G U91A, A30U A107G is higher in self-cleavage: 0.3 for the first, 1.28 for the second.

Compared with A31G A138G, A30U U87C is lower in self-cleavage: 0.86 for the first, 0.23 for the second.

Going from A31C C71A to A31U A67G, the self-cleavage rises from 0.19 to 0.41.

First: A31G G72A
Second: A31G U108C
The self-cleavage of the first is lower: 0.77 for the first, 1.26 for the second.

Going from A31U G86A to U29G U96C, the self-cleavage rises from 0.05 to 0.67.

First: U29G U96A
Second: A31U A107G
The self-cleavage of the first is lower: 0.06 for the first, 1.28 for the second.

First: A30U A124C
Second: A31C U39C
The self-cleavage of the first is lower: 1.05 for the first, 1.19 for the second.

First: A31U A138U
Second: U29G
The self-cleavage of the first is higher: 1.4 for the first, 1.1 for the second.

Compared with A31G C98A, G32A A94C is higher in self-cleavage: 0 for the first, 0.04 for the second.

First: G32A A107G
Second: A31U U85G
The self-cleavage of the first is higher: 1.09 for the first, 0.15 for the second.

Going from A31G G139A to A31G G139U, the self-cleavage rises from 1.19 to 1.67.

Compared with U29G U130C, A31G A42G is higher in self-cleavage: 0.63 for the first, 0.96 for the second.

First: A31G A141G
Second: A30G G97A
The self-cleavage of the first is higher: 1.1 for the first, 0.42 for the second.

Compared with A30U A79C, A30U U91C is lower in self-cleavage: 1.19 for the first, 0.56 for the second.

Compared with A31U U62C, U29C C145U is higher in self-cleavage: 0.12 for the first, 1.28 for the second.

Compared with A30U G82A, U29G U47A is lower in self-cleavage: 1.57 for the first, 1.41 for the second.

A31G C110U and A31U A121U are the same in self-cleavage: 0.51 for the first, 0.51 for the second.

Going from A31U A121G to A31U G33C, the self-cleavage falls from 1 to 0.81.

Going from A30G G44C to A31G U102C, the self-cleavage falls from 0.8 to 0.35.

Going from A30U C56A to A30C C113U, the self-cleavage rises from 0.09 to 1.32.

Going from A30G G126U to A31U U96C, the self-cleavage falls from 0.96 to 0.23.

Going from A31U U96A to A31U U112C, the self-cleavage rises from 0.07 to 1.27.

Compared with A31G, A31C is higher in self-cleavage: 1.11 for the first, 1.43 for the second.

Going from A31U to G32A A141G, the self-cleavage rises from 1.03 to 1.95.

First: A31G U47A
Second: A31G U47C
The self-cleavage of the first is higher: 0.94 for the first, 0.79 for the second.

Work on A30G A107U yielded a self-cleavage of 1.71.
